Differential centrifugation after the light scatter assay: per cent of CS in the pellet and suppression of aggregation of chemically denatured CS, light scattering data for two molecules are collected here from paper PMC8063735.

The target in assay [1] is T1, citrate synthase (UniProt P00889).
T1 sequence: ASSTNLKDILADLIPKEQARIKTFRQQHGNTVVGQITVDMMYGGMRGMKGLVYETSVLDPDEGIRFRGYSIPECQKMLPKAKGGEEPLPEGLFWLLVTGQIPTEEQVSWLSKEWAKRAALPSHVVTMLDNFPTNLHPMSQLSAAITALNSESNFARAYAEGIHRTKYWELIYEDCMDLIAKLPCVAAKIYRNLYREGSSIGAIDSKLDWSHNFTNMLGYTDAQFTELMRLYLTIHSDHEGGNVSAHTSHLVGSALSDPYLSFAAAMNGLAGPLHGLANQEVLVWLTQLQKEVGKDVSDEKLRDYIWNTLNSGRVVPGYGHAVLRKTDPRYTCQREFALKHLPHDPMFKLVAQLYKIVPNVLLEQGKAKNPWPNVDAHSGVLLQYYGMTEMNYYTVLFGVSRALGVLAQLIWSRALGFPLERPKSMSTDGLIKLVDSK

In assay [2] the target is T1, citrate synthase. This is another data set of the same source.

Turning to “Hsp110^ΔSBDβ (from UniProt Q9VUC1 1-804) (natural protein)”, in assay [1], the differential centrifugation after the light scatter assay: per cent of CS in the pellet is 4%.

B1: Drosophila melanogaster Hsp110 (Hsc70cb-encoded protein) (natural protein)
chain: MSVIGIDFGNESCYVAAARSGGIETLANDYSLRATPSFVAFDGKKRIIGVAAKNQQVTNMKNTVGGFKRLLGRKFNDPHVQHELTSIPARVEARGDGSIGIKVNYLGEDQHFGPEQLTAMLFTKLKETSAAAMQTQVNDCVIACPVFFTNAERKALLDAAQIAGLNVLRLMNETTATALAYGFYKNDLFEDKPRNVIFVDFGHSSLQASACAFTKGKLKMLASTWDQIGGRDIDLALGDYFAKEFQERYKINAKTNARANLRLLTEIEKLKKQMSANSTKLPLNIECFLDDIDVSSSMQRSQMEELCAPVLQRVEQTFKRLLAESKLQLDDIHSVEIVGGSSRIPSVKQLIEQVFNKPASTTLNQDEAVSRGAALQCAIMSPAVRVREFGVTDIQNYAVKVLWDSEGSAAPGEIEIFPQYHASPFSRLLTINRKGPFNVSIVYGQQVPYPDQTIGVWKVKDVKPTERGEGQDVKLKVRINNNGIVLISSATLVEKKEAEEAAAAAEQAASEEKPGDQTNNTGEPADGQQEGADKKKKASKATELPLECTTHGFSPVDLSNYTQQESKMIGNDQKETERIDAKNALEEFVYDMRNKLQGGPFERYVVEAEREKIVSQLNDLENWLYEDGEDCERDIYTSRLQALHQKTDPIKLRASDYEQGPAAFDELKNSIAIARLAVAEFRKGVPKYDHLTETEFINISETADKAQSWLDANLPKFTQSPRTADSPVQISAVRQEVQTLNSCVSSVINRAKPKPTPAKTATPPKDEANAEQNGGEPAANSGDKMDVDNNGQSAAGNDPSMEVE
As for B1, the suppression of aggregation of chemically denatured CS, light scattering at 320 nm, chaperone to substrate 1:1, 2:1 and 4:1 in assay [2] stood at 50%.
